Experimental data taken from publication PMC10397247.

Legend:
[1] = molecular target: T1, 4H2931-bN; experiment: two-hybrid library CCNG1;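 also: natural log of median RNA to DNA barcode read ratio; higher means stronger binding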
T1 chain: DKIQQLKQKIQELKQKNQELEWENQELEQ

[2] = molecular target: T2, 4H3297-bN; experiment: two-hybrid library CCNG1;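 also: natural log of median RNA to DNA barcode read ratio; higher means stronger binding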
T2 chain: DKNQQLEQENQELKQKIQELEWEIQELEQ

[3] = molecular target: T3, 4H3041-bN; experiment: two-hybrid library CCNG1;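 also: natural log of median RNA to DNA barcode read ratio; higher means stronger binding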
T3 chain: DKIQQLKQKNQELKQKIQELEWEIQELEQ

[4] = molecular target: T4, 4H796-bN; experiment: two-hybrid library CCNG1;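 also: natural log of median RNA to DNA barcode read ratio; higher means stronger binding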
T4 chain: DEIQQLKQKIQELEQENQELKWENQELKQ

[5] = molecular target: T5, 4H349-bN; experiment: two-hybrid library CCNG1;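 also: natural log of median RNA to DNA barcode read ratio; higher means stronger binding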
T5 chain: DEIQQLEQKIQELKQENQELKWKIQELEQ

[6] = molecular target: T6, 4H949-bN; experiment: two-hybrid library CCNG1;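 also: natural log of median RNA to DNA barcode read ratio; higher means stronger binding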
T6 chain: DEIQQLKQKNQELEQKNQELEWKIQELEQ

[7] = molecular target: T7, 4H2859-bN; experiment: two-hybrid library CCNG1
T7 chain: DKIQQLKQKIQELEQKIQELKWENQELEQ

[8] = molecular target: T8, 4H932-bN; experiment: two-hybrid library CCNG1
T8 chain: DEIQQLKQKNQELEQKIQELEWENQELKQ

[9] = molecular target: T9, 4H730-bN; experiment: two-hybrid library CCNG1
T9 chain: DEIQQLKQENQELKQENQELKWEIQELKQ

[10] = molecular target: T10, 4H3381-bN; experiment: two-hybrid library CCNG1
T10 chain: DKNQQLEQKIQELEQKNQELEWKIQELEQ

[11] = molecular target: T11, O11-bH; experiment: two-hybrid library CCNG1
T11 chain: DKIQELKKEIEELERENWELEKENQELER

[12] = molecular target: T12, 4H56-bN; experiment: two-hybrid library CCNG1
T12 chain: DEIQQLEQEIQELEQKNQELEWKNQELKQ

[13] = molecular target: T13, 4H3364-bN; experiment: two-hybrid library CCNG1
T13 chain: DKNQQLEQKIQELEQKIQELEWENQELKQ

[14] = molecular target: T14, 4H2585-bH; experiment: two-hybrid library CCNG1
T14 chain: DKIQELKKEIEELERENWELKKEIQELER

[15] = molecular target: T15, P7A-bP; experiment: two-hybrid library CCNG1
T15 chain: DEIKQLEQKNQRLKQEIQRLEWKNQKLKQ

[16] = molecular target: T16, 4H2444-bH; experiment: two-hybrid library CCNG1
T16 chain: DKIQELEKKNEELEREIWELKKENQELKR

[17] = molecular target: T17, 4H2859-bH; experiment: two-hybrid library CCNG1
T17 chain: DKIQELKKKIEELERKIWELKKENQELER

[18] = molecular target: T18, 4H730-bH; experiment: two-hybrid library CCNG1
T18 chain: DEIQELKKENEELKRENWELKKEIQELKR

[19] = molecular target: T19, 4H2760-bH; experiment: two-hybrid library CCNG1
T19 chain: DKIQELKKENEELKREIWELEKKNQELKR

[20] = molecular target: T20, 4H349-bH; experiment: two-hybrid library CCNG1
T20 chain: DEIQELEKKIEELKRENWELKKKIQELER

[21] = molecular target: T21, 4H235-bH; experiment: two-hybrid library CCNG1
T21 chain: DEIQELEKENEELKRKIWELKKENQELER

[22] = molecular target: T22, 4H932-bH; experiment: two-hybrid library CCNG1
T22 chain: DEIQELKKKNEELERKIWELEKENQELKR

[23] = molecular target: T23, 4H3041-bH; experiment: two-hybrid library CCNG1
T23 chain: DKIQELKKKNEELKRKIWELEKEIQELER

[24] = molecular target: T24, 4H3364-bH; experiment: two-hybrid library CCNG1
T24 chain: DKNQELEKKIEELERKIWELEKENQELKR

[25] = molecular target: T25, 4H2518-bH; experiment: two-hybrid library CCNG1
T25 chain: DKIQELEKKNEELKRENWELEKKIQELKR

[26] = molecular target: T26, 4H949-bH; experiment: two-hybrid library CCNG1
T26 chain: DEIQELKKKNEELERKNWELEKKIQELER

[27] = molecular target: T27, 4H264-bH; experiment: two-hybrid library CCNG1
T27 chain: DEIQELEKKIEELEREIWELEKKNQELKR

[28] = molecular target: T28, 4H796-bH; experiment: two-hybrid library CCNG1
T28 chain: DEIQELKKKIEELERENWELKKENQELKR

[29] = molecular target: T29, 4H2931-bH; experiment: two-hybrid library CCNG1
T29 chain: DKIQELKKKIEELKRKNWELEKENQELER

[30] = molecular target: T30, 4H3381-bH; experiment: two-hybrid library CCNG1
T30 chain: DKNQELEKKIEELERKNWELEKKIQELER

[31] = molecular target: T31, 4H3297-bH; experiment: two-hybrid library CCNG1
T31 chain: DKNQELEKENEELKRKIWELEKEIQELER

[32] = molecular target: T32, 4H56-bH; experiment: two-hybrid library CCNG1
T32 chain: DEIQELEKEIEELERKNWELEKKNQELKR

[33] = molecular target: T33, 4H2253-bH; experiment: two-hybrid library CCNG1
T33 chain: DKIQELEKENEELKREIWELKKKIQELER

[34] = molecular target: T34, P12A-bP; experiment: two-hybrid library CCNG1
T34 chain: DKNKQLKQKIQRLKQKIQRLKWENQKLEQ

[35] = molecular target: T35, 4H2873-AA; experiment: two-hybrid library CCmax; conditions: mean of both orientations
T35 chain: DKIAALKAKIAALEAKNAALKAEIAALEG

[36] = molecular target: T36, 4H2758-AA; experiment: two-hybrid library CCmax; conditions: mean of both orientations
T36 chain: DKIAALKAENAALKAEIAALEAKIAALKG

[37] = molecular target: T37, 4H1985-AA; experiment: two-hybrid library CCmax; conditions: mean of both orientations
T37 chain: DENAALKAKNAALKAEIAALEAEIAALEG

[38] = molecular target: T38, 4H390-AA; experiment: two-hybrid library CCmax; conditions: mean of both orientations
T38 chain: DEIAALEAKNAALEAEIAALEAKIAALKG

[39] = molecular target: T39, 4H2687-AA; experiment: two-hybrid library CCmax; conditions: mean of both orientations
T39 chain: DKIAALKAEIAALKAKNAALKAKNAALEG

[40] = molecular target: T40, 4H816-AA; experiment: two-hybrid library CCmax; conditions: mean of both orientations
T40 chain: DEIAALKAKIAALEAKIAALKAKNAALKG

[41] = molecular target: T41, 4H2985-AA; experiment: two-hybrid library CCmax; conditions: mean of both orientations
T41 chain: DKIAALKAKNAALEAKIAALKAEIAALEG

[42] = molecular target: T42, 4H3134-AA; experiment: two-hybrid library CCmax; conditions: mean of both orientations
T42 chain: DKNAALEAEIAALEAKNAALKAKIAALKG

[43] = molecular target: T43, 4H3625-AA; experiment: two-hybrid library CCmax; conditions: mean of both orientations
T43 chain: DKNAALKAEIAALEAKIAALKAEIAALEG

[44] = molecular target: T44, 4H2187-AA; experiment: two-hybrid library CCmax
T44 chain: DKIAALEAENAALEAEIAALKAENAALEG

[45] = molecular target: T45, 4H1710-AA; experiment: two-hybrid library CCmax
T45 chain: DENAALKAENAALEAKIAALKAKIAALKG

[46] = molecular target: T46, 4H2646-AA; experiment: two-hybrid library CCmax; conditions: mean of both orientations
T46 chain: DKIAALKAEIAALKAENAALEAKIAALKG

[47] = molecular target: T47, 4H3409-AA; experiment: two-hybrid library CCmax; conditions: mean of both orientations
T47 chain: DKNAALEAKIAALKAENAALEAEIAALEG

[48] = molecular target: T48, 4H775-AA; experiment: two-hybrid library CCmax; conditions: mean of both orientations
T48 chain: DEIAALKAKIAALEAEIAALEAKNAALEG

[49] = molecular target: T49, 4H278-AA; experiment: two-hybrid library CCmax; conditions: mean of both orientations
T49 chain: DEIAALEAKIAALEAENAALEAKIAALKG

[50] = molecular target: T50, 4H2705-AA; experiment: two-hybrid library CCmax; conditions: mean of both orientations
T50 chain: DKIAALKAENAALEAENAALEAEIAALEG

[51] = molecular target: T51, 4H2512-AA; experiment: two-hybrid library CCmax; conditions: mean of both orientations
T51 chain: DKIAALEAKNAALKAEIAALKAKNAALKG

[52] = molecular target: T52, 4H510-AA; experiment: two-hybrid library CCmax; conditions: mean of both orientations
T52 chain: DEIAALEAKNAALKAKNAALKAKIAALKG

[53] = molecular target: T53, 4H233-AA; experiment: two-hybrid library CCmax; conditions: mean of both orientations
T53 chain: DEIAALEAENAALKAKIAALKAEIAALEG

[54] = molecular target: T54, 4H3940-AA; experiment: two-hybrid library CCmax; conditions: mean of both orientations
T54 chain: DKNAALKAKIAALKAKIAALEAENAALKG

[55] = molecular target: T55, 4H87-AA; experiment: two-hybrid library CCmax; conditions: mean of both orientations
T55 chain: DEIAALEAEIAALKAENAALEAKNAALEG

[56] = molecular target: T56, P2A-bP; experiment: two-hybrid library CCNG1
T56 chain: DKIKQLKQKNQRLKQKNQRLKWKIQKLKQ

[57] = molecular target: T57, P1A-bP; experiment: two-hybrid library CCNG1
T57 chain: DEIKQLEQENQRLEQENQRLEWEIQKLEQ

[58] = molecular target: T58, P5A-bP; experiment: two-hybrid library CCNG1
T58 chain: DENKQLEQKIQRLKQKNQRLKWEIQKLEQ

[59] = molecular target: T59, P8A-bP; experiment: two-hybrid library CCNG1
T59 chain: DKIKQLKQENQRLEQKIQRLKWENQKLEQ

[60] = molecular target: T60, P3A-bP; experiment: two-hybrid library CCNG1
T60 chain: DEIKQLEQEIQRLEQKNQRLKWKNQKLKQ

[61] = molecular target: T61, P9A-bP; experiment: two-hybrid library CCNG1
T61 chain: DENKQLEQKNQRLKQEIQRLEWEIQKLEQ

[62] = molecular target: T62, P6A-bP; experiment: two-hybrid library CCNG1
T62 chain: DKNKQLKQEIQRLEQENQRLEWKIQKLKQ

[63] = molecular target: T63, P4A-bP; experiment: two-hybrid library CCNG1
T63 chain: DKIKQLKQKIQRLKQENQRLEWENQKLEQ

B1: 4H2859-bN (peptide)
chain: DKIQQLKQKIQELEQKIQELKWENQELEQ
- interaction score [1]: -0.613
- interaction score [2]: 0.359
- interaction score [3]: 0.995
- interaction score [4]: -1.23
- interaction score [5]: -1.06
- interaction score [6]: -2.31
- interaction score [7]: 0.927
- interaction score [8]: -1.18
- interaction score [9]: -1.23
- interaction score [10]: -1.35
- interaction score [11]: 0.17
- interaction score [12]: 0.857
- interaction score [13]: -0.713

B2: 4H2253-bH (peptide)
chain: DKIQELEKENEELKREIWELKKKIQELER
- interaction score [14]: -1.52
- interaction score [15]: -1.72
- interaction score [16]: -0.045
- interaction score [17]: 0.651
- interaction score [18]: -0.37
- interaction score [19]: 0.899
- interaction score [20]: -0.0717
- interaction score [21]: 0.172
- interaction score [22]: -0.937
- interaction score [23]: 0.872
- interaction score [24]: 0.0509
- interaction score [25]: 0.157
- interaction score [26]: -0.427
- interaction score [27]: 0.653
- interaction score [28]: -0.124
- interaction score [29]: -0.195
- interaction score [30]: 0.131
- interaction score [31]: 0.617
- interaction score [32]: -2.53
- interaction score [33]: 0.888
- interaction score [34]: -0.712

B3: 4H1710-AA (peptide)
chain: DENAALKAENAALEAKIAALKAKIAALKG
- interaction score [35]: -0.937
- interaction score [36]: 1.82
- interaction score [37]: 2.15
- interaction score [38]: 1.21
- interaction score [39]: -1.29
- interaction score [40]: -0.912
- interaction score [41]: 0.52
- interaction score [42]: -0.882
- interaction score [43]: -0.181
- interaction score [44]: -0.907
- interaction score [45]: -0.109
- interaction score [46]: -1.37
- interaction score [47]: -0.675
- interaction score [48]: -0.259
- interaction score [49]: -0.799
- interaction score [50]: -0.626
- interaction score [51]: -0.967
- interaction score [52]: -0.836
- interaction score [53]: 1.63
- interaction score [54]: -0.657
- interaction score [55]: -1.16

B4: P12A-bP (peptide)
chain: DKNKQLKQKIQRLKQKIQRLKWENQKLEQ
- interaction score [15]: -1.24
- interaction score [56]: -1.47
- interaction score [57]: -0.938
- interaction score [58]: -1.95
- interaction score [59]: -1.36
- interaction score [60]: 1.06
- interaction score [61]: -0.693
- interaction score [62]: -1.09
- interaction score [63]: -1.3
- interaction score [34]: -1.39
